Three molecules from PMC9038204, “SNX27–Retromer directly binds ESCPE-1 to transfer cargo proteins during endosomal recycling” (PLoS Biology, 2022) can be followed below.

The test system of one assay is SNX27. The assay can be described thus: GFP trap co-immunoprecipitation of GFP-SNX1/SNX2 constructs from HEK-293T, quantitative western blot: SNX27. Type of assay: binding. The following applies: Fig 3F, S2B Fig; double aDLF mutants in HEK293T, GFP trap. The procedure:
HeLa and HEK-293T cell lines were sourced from ATCC. Authentication was from the ATCC. Cells were grown in DMEM (Sigma-Aldrich) supplemented with 10% (v/v) FCS (Sigma-Aldrich) and penicillin/streptomycin (Gibco, USA) and grown under standard conditions. FuGENE HD (Promega, USA) was used for transient transfection of DNA according to the manufacturer’s instructions. Cycloheximide was used to prevent up-regulation of protein synthesis. In this case, cycloheximide (C7698; Sigma-Aldrich) at 10 μg/ml was added to the cells 48 hours after FuGENE transfection for the indicated time points. For the generation of CRISPR-Cas9 SNX27 knockout HeLa cells, HeLa cells were transfected with pX330 plasmid coding for the gRNA against the gene of interest together with a puromycin resistance–expressing plasmid. Cells were then subjected to puromycin selection for 24 hours. The pooled population of cells was subjected to lysis and western blotting to confirm the knockout. The VPS35 knockout clonal cell line used in this study was characterized previously. […]
For western blotting, cells were lysed in PBS with 1% (v/v) Triton X-100 and protease inhibitor cocktail. The protein concentration was determined with a BCA assay kit (Thermo Fisher Scientific, USA), and equal amounts were resolved on NuPAGE 4% to 12% precast gels (Invitrogen, USA). […]

The subject of assay [1] is FERM domain of human SNX27 (hSNX27FERM). The assay can be described thus: ITC, hSNX27FERM titrated into mSNX1 proteins. Type of assay: binding. The following applies: 25°C. The procedure: Human SNX1 and SNX2 peptide sequences were synthesized by Genscript (USA). To obtain the peptide stock solutions at neutral pH, 100 mM Tris-HCl, pH 10.6 was used to dissolve the peptide to a final concentration of 8 mM. The peptides were SNX1_35-51 […], SNX135-51(D45K) […], SNX1_75-92 […], SNX2_16-33 […], SNX2_16-33(DLF/SSS) […], and SNX2_62-82 […].
All microcalorimetry experiments were conducted at 25°C using a PEAQ ITC (Malvern, UK) in 50 mM HEPES (pH 7.5), 200 mM NaCl, 5% glycerol, and 1 mM β-ME (ITC buffer). All proteins were purified by SEC using the same buffer prior to ITC experiments to avoid buffer mismatches. To measure binding of SNX27 to SNX1 proteins, 800 μM of hSNX27FERM was titrated into 20 μM of GST-mSNX1_1-139 or His-SNX1FL. For the binding of SNX1 and SNX2 peptides to SNX27, peptides were diluted 10-fold to 800 μM in ITC buffer peptides and titrated into 20 μM SNX27FL proteins containing the same 1:10 ratio of peptide buffer (100 mM Tris-HCl, pH 10.6). The competitive ITC experiments were carried out by titrating 800 μM SNX1_75-92 peptides into 20 μM proteins with 2-fold molar excess SNX2_16-33 peptide preincubated with SNX27 on ice for an hour. For ITC experiment using SNX1_75-92 against hSNX27 wild-type and single-site mutants, 600 μM SNX1_75-92 peptide was titrated into 20 μM hSNX27 proteins.
The ITC experiments were conducted with 1 injection of 0.4 μL followed by a series of 12 injections of 3.2 μL each with 180-second intervals and a stirring speed of 850 rpm. The heat exchange of interactions was obtained through integrating the observed peaks and background correction by subtracting the heats of dilution. Data were analyzed with Malvern software package by fitting and normalized data to a single-site binding model, yielding the thermodynamic parameters Kd, ΔH, ΔG, and −TΔS for all binding experiments. The stoichiometry was refined initially, and if the value was close to 1, then N was set to exactly 1.0 for calculation. All experiments were performed at least twice to guarantee reproducibility of the data.

[2] abbreviates: pH 7.5, 800 μM hSNX27FERM into 20 μM mSNX1 protein.

B1: GFP-SNX2(D26K,D72K): mutant targeting both aDLF motifs in SNX2 (protein, UniProt O60749 1-519, looked up, variant D26K D72K)
Sorting nexin-2: MAAEREPPPLGDGKPTDFEDLEDGEKLFTSTVSTLESSPSSPEPASLPAEDISANSNGPKPTEVVLDDDREKLFAEATEEVSLDSPEREPILSSEPSPAVTPVTPTTLIAPRIESKSMSAPVIFDRSREEIEEEANGDIFDIEIGVSDPEKVGDGMNAYMAYRVTTKTSLSMFSKSEFSVKRRFSDFLGLHSKLASKYLHVGYIVPPAPEKSIVGMTKVKVGKEDSSSTEFVEKRRAALERYLQRTVKHPTLLQDPDLRQFLESSELPRAVNTQALSGAGILRMVNKAADAVNKMTIKMNESDAWFEEKQQQFENLDQQLRKLHVSVEALVCHRKELSANTAAFAKSAAMLGNSEDHTALSRALSQLAEVEEKIDQLHQEQAFADFYMFSELLSDYIRLIAAVKGVFDHRMKCWQKWEDAQITLLKKREAEAKMMVANKPDKIQQAKNEIREWEAKVQQGERDFEQISKTIRKEVGRFEKERVKDFKTVIIKYLESLVQTQQQLIKYWEAFLPEAKAIA
modifications: GFP tag
Take B1: the “SNX27 binding, in words” value in the assay on SNX27 is reported as “near undetectable levels”.

B2: mSNX1_1-139: recombinant truncated mSNX1 containing residues 1 to 139, GST fusion protein (protein)
chain: MASGGGGCSASERLPPPFPGMDPESEGAAGASEPEAGDSDTEGEDIFTGAAAATKPQSPKKTTSLFPIKNGSKENGIHEDQDQEPQDLFADATVELSLDSTQNNQKTMPGKTLTSHSPQEATNSPKPQPSYEELEEEEQ
modifications: left off: GST, N-terminal, kept
notes: recombinant truncated mSNX1 containing residues 1 to 139, GST fusion protein
Take B2: in assay [1] (setting [2]), the ΔG was -6.02 ± 0.01 kcal/mol and the ΔH is -6.93 ± 0.01 kcal/mol.

B3: mSNX1FL: recombinant full-length mouse SNX1 with an amino-terminal His-tag (protein)
chain: MASGGGGCSASERLPPPFPGMDPESEGAAGASEPEAGDSDTEGEDIFTGAAAATKPQSPKKTTSLFPIKNGSKENGIHEDQDQEPQDLFADATVELSLDSTQNNQKTMPGKTLTSHSPQEATNSPKPQPSYEELEEEEQEDQFDLTVGITDPEKIGDGMNAYVAYKVTTQTSLPMFRSRQFAVKRRFSDFLGLYEKLSEKHSQNGFIVPPPPEKSLIGMTKVKVGKEDSSSAEFLEKRRAALERYLQRIVNHPTMLQDPDVREFLEKEELPRAVGTQALSGAGLLKMFNKATDAVSKMTIKMNESDIWFEEKLQEVECEEQRLRKLHAVVETLVNHRKELALNTALFAKSLAMLGSSEDNTALSRALSQLAEVEEKIEQLHQEQANNDSFLLAELLSDYIRLLAIVRAAFDQRMKTWQRWQDAQATLQKKRESEARLLWANKPDKLQQAKDEITEWESRVTQYERDFERISTVVRKEVTRFEKEKSKDFKNHVMKYLETLLHSQQQLAKYWEAFLPEAKAIS
modifications: left off: His-tag, N-terminal, kept
A word on the Kd: it is a measure of binding affinity in units of concentration. In turn, B3 yielded a Kd in assay [1] (50 mM HEPES pH 7.5, 200 mM NaCl, 5% glycerol, 1 mM β-ME, 800 μM hSNX27FERM titrated into 20 μM mSNX1 protein, single-site fit, mean of at least 2 experiments) of 41 µM. In assay [1] (setting [2]), the “-TΔS” value was found to be 0.24 ± 3.10 kcal/mol, the ΔG is given as -5.99 ± 0.02 kcal/mol and the ΔH is -6.23 ± 3.11 kcal/mol.
